Measurements published in the DeepSol protein solubility set.

Assay: soluble on expression in E. coli; label from the status in PepcDB or PDB records

Sequence | soluble on expression in E. coli
MESYIQNLFAERIGGKSFGKEDVIYKFEKIKRAKQAAKLKYPDMELIDMGVGEPDEMADESVVEVLCEEAKKHVNRGYSDNGVQALKDEIPIYLEKIFGVKDLDPVNEVVHSIGSKPALAYITSVFINPGDVTLMTVPGYPVTATHTKWYGGSVETLPLLEKNNFLPELDAISKEVRENAKILYLNYPNNPTGAQATKKFYKEAVDFAFENDLIVIQDAAYAALTYGDKPLSFLSVKDAKEVGVEIHSFSKAYNMTGWRLAFVAGNELIVRGFAAVKDNYDSGQFIPIQKAGIHCLRHPEITEKTRAKYERRLSKMVKILKEAGFNAKMPGGTFYLYVKAPIGTKDGAKFANAEEFSQFMIKEKLISTVPWDDAGNFVRMAACFEAFKDGEISIEEEDRILNEVKRRLTEVEFVFE | not soluble
MTQLCSDVRVSPLPGTAKVGDTYILFEHHGPWSHDILDGGTFDKETSAALKAMGCGFYLIRRHGREGRIERPKKTAYLVFGSAGIAEKLMVDDVTDLLKLDVSGPGKNRQFGAEQEAQPIILVCTHAKRDACCAIKGRPMAQALTEEFPDSPVWECSHTKGHRFAPSMVLMPWGYTWGQLNKPAAFDMYRYAQRGQLFLPGNRGRGIWPMKGQIAEVAVAQQLAQEGETVTLGQLRVESIEEAQAHVADSHTARTWTVFLREEVVAGIVDSCHKPPKTGTAWVADRVKENGA | not soluble
MAHHHHHHMGTLEAQTQGPGSMKNYRIESDSFGEIQIEEKFYWGAQTQRSLNNFKISKQKMPKILIRALAILKKCAAQVNYEFGDLEYKIATSIDKAIDRILAGEFEDNFPLVVWQTGSGTQTNMNMNEVIASIANEELTGKKGGKFPVHPNDHVNKGQSSNDSFPTAMHIATVLATKQQLIPALNNLLTYLQDKSKDWDKIIKIGRTHLQDATPLTLKQEFSGYITQIEYALERIEDALKKVYLLAQGGTAVGTGINSKIGFDIKFAQKVAEFTQQPFKTAPNKFESLAAHDALVEFSGTLNTIAVSLMKIANDIRLLGSGPRCGLGELHLPENEPGSSIMPGKVNPTQVEALTMVCTQVMGNHVTVTIAGSNGHLELNVFKPVIIYNILQSIELLSDSVNSFVTHCVKGLEPNIARINTLRDKSLMLVTVLNPHIGYDNAAKIAKEAHKYGITLKEAAKKLNFLSEEEFDKIVVPEKMIS | soluble
MDVQIFPHRLLGADTTEKLLNRLEDISGVKRMVIHGQRLPPEDHPDRRIISVKGHEFELQVKTGRVLLEIEDEDTIADIKRVCEDLLPFGYDVTPGKYIRTQKTVTDEIKYGEDLDKVPEELIGLTDQNARLSERATIIKRKKEHLEHHHHHH | soluble
MCGRYALFSTPETLRETFGLTTAPVEPTYNAAPSQSLPVILDTEPTETVRARWGLVPSWSDGPQSAPDPINARAETLTETRHFQAAYEHRRCLVPVDGFYEWRDEDGATVPYFVSRTDGAPFLLAGLWETWTPEQTQTGLGEFTGDDGPSRDPETVRSFTVVTTQPNAFLADYHHRMAVVLTPAQGQRWLTDDDPTDLFTPGAFDLQAWRVSTAVNDPTVDRPALVEPALEHHHHHH | not soluble
MAHHHHHHMKTDDHLSQIHRMCRALGIRPGAPAPLIQPALTLQCPRLHTPMVVHEKPAAKIALPMLLSDSSGDVSYLAGQDSVGTLRMTPPGSPRTPALTSVSNMRHHAHLATSELPVSVLVASALSFVAAWRTEDSACTAQKDLIHCCLKARCDLELEEAGGRHRLNQLLLTVSEQMHRFVVMGEYSKFVVFCVDQEPVWRQAARQLQKENEARLHTTENIYSRFLMEEIAVSDKMRMFQEASDFVVSQGHAAREQRRRAQILAARRRCDRQSAPQETPMPFAPQSHLHPHQHKNESNAAALAGGWTPPQRQRPRDDSTDRRSGSSKERSSKNAKSHSTTEVDRYRQRWRKIIWFLSNGERGKPAPH | not soluble
MDSQVEGKISPSQKESSSTSGLVSPSEDGPAHQKIHRDQLSVDQIKKIREERAQKRQVRRNSLISQGKDPDFPTPDLQFIERPFLPINHDNSKGLTPATIQVTQDSLDVKIMTYNTLAQTLIRRDFFPESGPALKWHKRSKVLVHELKKYRPDVVSLQEVDYNELNFWQENFHKLGFDVIFKRHEGKTHGLLVAWNNKKFQLDNDWMLDYDNILAGNVISARTRTKNIALIISLYFKGITDSSSRGIIVANTHLFWHPFGVFERLRQSYLVLQKIQEIKACSKYNGWHSLLMGDFNTEPEEPPYLAITKRPLILKGPIRAMVECSLAYRYSKKRNGEESDQDDEECDEKSRGEGHSDQPQNPKPESFTATKEEKALVNQLVALHNSLHVKGVSLYGIGYGKVHPENANGSHGEPGLSNWANTWCGLLDYIFYIEGDHNQDTRQKEPLNAFEGNNNVKIIGYLRMPCAQEMPKHSQPFEGEYASDHISLMCQIRLFFGGEKVHSLK | not soluble
VGLGNLKTYGGLRQGSQSYNIDRLKKYLYYGDGTYDDLVNTLLNEAMNDQLESFASFYRGKKLYELPRGWPEIPAKRQR | not soluble
LQIFSKEGLLIQEYGEKKRIPVTYDEIPPTLIHALIATEDQRFFEHPGVDVMGLGRAAVSMLKTGTKSQGGSTITMQVARNFFLSRKKTFLRKFNEIMLAIKIDRELSKEKILELYLNRVYLGNRAYGVGAAAMVYFGKSLKDLNLAELAMIAGLPQAPSTQNPIANP | not soluble
GMSLAPWRGAIAHALHRNRSLVYARYLQLATVQPNGRPANRTLVFRGFLEDTNQLRFITDTRSAKADQIQQQPWAEICWYFPNTREQFRMAGDLTLISSDDSHQDLQPARIAMWQELSDAARLQFGWPYPGKPRIKESGAFEPSPPDPIEPVPNFCLLLLDPVQVDHLELRGEPQNRWLYHRNDQQEWSSEAINP | soluble
GMTQPHQIILLAHGSSDARWCETFEKLAEPTVESIENAAIAYMELAEPSLDTIVNRAKGQGVEQFTVVPLFLAAGRHLRKDVPAMIERLEAEHGVTIRLAEPIGKNPRLGLAIRDVVKEELERSEH | soluble
MGEYIRYQGEEALGLIETLGMVPAIYGADSMLKAANVQLISYENVGSTLVTVMVKGDVAAVQASVDAGSVAAAGIGKLTAHNVMPRPIRPIGDIVSVHAITDDAPAGDGSRPRAMGLIETFGIVYVLEAADAMLKTADVELIGYENVASGYISVLVQGDVAACQAAVAAGVKAVQAMGTDVYSSVVIPTPHPDVAKITARYALENLLP | not soluble
MGSDKIHHHHHHMKKWLVLGVAAVAFFSYENTPMEQAEADYPKSGGTLIDRYTSEYPGYDWEVRRTATEEFVALTKDGKDYGKYRSKNGVTTQGAVLNKDTETTLAKKGWKAVKSYRKGNTNYLLNLDHAAVYEKKDRYVTYFFDQHDGNKVKATLAIPKEVEAKKSGFYGKASSALRTTDEKLMLRLMNWDRADYNLGALTPYSPLKPVTRAHSENMAKNNFFSHTDPERRDPFDRMKENGIRFSAAGENLSMGYPNVFAAHWGLMNSKGHRDNIMNKTFEQADTGVAFRDNAPYFTINFRTP | not soluble
MKDLKKIESYLDKLRIKEKDGEERKIYAEVLDGRTLKTLYKLSAKGYITAMGGVISTGKEANVFYADGVFDGKPVAMAVKIYRIETSEFDKMDEYLYGDERFDMRRISPKEKVFIWTEKEFRNLERAKEAGVSVPQPYTYMKNVLLMEFIGEDELPAPTLVELGRELKELDVEGIFNDVVENVKRLYQEAELVHADLSEYNIMYIDKVYFIDMGQAVTLRHPMAESYLERDVRNIIRFFSKYGVKADFEEMLKEVKGE | soluble
MGSDKIHHHHHHMMSVQTTKLDAVPLGDRAPILEMRGISQIFPGVKALDGVNIALYPGEVTALIGENGAGKSTLVKILTGIYRPNEGEIVIDGSPVTFADAQAAIDAGVTAIHQETVLFDELSVAENIFLGHAPKTRFGFIDWNGINTKARALMDRLESKIDPTIRLKDLSIAQRHLVAIARALSVEARIVIMDEPTAALSRKEIDDLFRIVEGLKRDGKAILFISHKFDEVYEIAENYAVFRDGKMVGAGRLQSTPQDEIVRLMVGRDVHDAFPKIDVSIGAAVLSVSRYCHDTEFRDISFDLRKGEILGFYGLIGAGRSELCQSLFGITHPASGTVTLEGRALDIRSPADAIAAGIVYVPEERGRHGLALQMPIYQNMSLPSLARVSARGFLKVVNELALARHYAERLDLRAAALSVPVGTLSGGNQQKVVIGKWLATKPKVIILDEPTKGIDIGSKAAVHGFISELAAEGLSIIMISSELPEILGMSDRVMVMREGLQAGIFEREALTPEVLVRAATGNA | not soluble
MSLYQAIVFFDLDSTLFDDNKHVLPASVAAIHEMQQHHILPVIATGRNIFEIQYVLDGTGIDSVVGANGSYVQYQGQRLAAAVIAPELLTAVTSFAQRQHDPIAYYTSQGFRLSQANADTTENFQLLRLHPIVDPAWYATHQINFLNVFNRDHDQLYQEKFSGQLTFVRNNPRCLDTMVNGVTKQSGIRTLIQQAGLQGIKTYAFGDGYNDLQMFDEVDVPISMGNGVAAAKEKAAYVTTTNTTDGIVRGLRHFGLIQEGHHHHHH | soluble
GMQGAGRLMQPRPDSAFVHDVRVTWGDCDPAKIAYTGHLPRFALEAIDAWWSEYHGPGGWYHLELDTNVGTPFVRLEMDFKSPVTPRHILKCHTWPTRLGTKSITFRVDGVQDGVTCFVGAFTCVFTIADQFKSQPAPDHLRALIEPHIPA | soluble
MKKPIHSHRAATLYHFAFCLHNLRRSPNSPFTVRNRDEQKDEKPYENKGKINKFFLDLTYFQLPYPVSERAPLRLRAKIETREKINFKIRASSSPAVLVNFPFPRHSLLVSLSPAHETNNAVDGEALHPRAQRA | not soluble
MKKFFLFLVLPIFLFASPLKAVFDCAVGDLDWISLRLSLIKKTAEQLMEEGKSYRFVITIHSHCIKVVDADLKKFPESERRKIELIQSQLKTLKEMYSVDVKACQIAMNRGKIKKVPPFVETVPNSWITLIELQNKGFAFVPF | not soluble
MMTESHGYLSNNLPVKIINDIIYATQLVEDLVLGKIKIVDFLKSYNNFYCWLGFDELPQSEKIKFLSYLNILSIHKEIQDETVNRVYTD | not soluble
MSLEPKYQRILIKLSGEALAGEKGVGIDIPTVQAIAKEIAEVHVSGVQIALVIGGGNLWRGEPAADAGMDRVQADYTGMLGTVMNALVMADSLQHYGVDTRVQTAIPMQNVAEPYIRGRALRHLEKNRIVVFGAGIGSPYFSTDTTAALRAAEIEADAILMAKNGVDGVYNADPKKDANAVKFDELTHGEVIKRGLKIMDATASTLSMDNDIDLVVFNMNEAGNIQRVVFGEHIGTTVSNKVCDEGHHHHHH | soluble
SNAMKEKVVIITGGSSGMGKGMATRFAKEGARVVITGRTKEKLEEAKLEIEQFPGQILTVQMDVRNTDDIQKMIEQIDEKFGRIDILINNAAGNFICPAEDLSVNGWNSVINIVLNGTFYCSQAIGKYWIEKGIKGNIINMVATYAWDAGPGVIHSAAAKAGVLAMTKTLAVEWGRKYGIRVNAIAPGPIERTGGADKLWISEEMAKRTIQSVPLGRLGTPEEIAGLAYYLCSDEAAYINGTCMTMDGGQHLHQYPF | soluble
MAHHHHHHMAIACDSPVITLYKPRENGMIMPCHPEMSTVENIGQITDAHRLVPTAVRFSEDSQWVISAGEDETLAVSSVRKLKRVFVCTEFITRRHCMAFMNTFTSLCILASPPETSVLIIAACATDGTVVQWVVNPATSRSSYTKKLQLHLGALVAMDIMRDGTGS | not soluble
MQRIRIIDSHTGGEPTRLVIGGFPDLGQGDMAERRRLLGERHDAWRAACILEPRGSDVLVGALLCAPVDPEACAGVIFFNNSGYLGMCGHGTIGLVASLAHLGRIGPGVHRIETPVGEVEATLHEDGSVSVRNVPAYRYRRQVSVEVPGIGRVSGDIAWGGNWFFLVAGHGQRLAGDNLDALTAYTVAVQQALDDQDIRGEDGGAIDHIELFADDPHADSRNFVLCPGKAYDRSPCGTGTSAKLACLAADGKLLPGQPWRQASVIGSQFEGRYEWLDGQPGGPIVPTIRGRAHVSAEATLLLADDDPFAWGIRR | soluble
